Assay results: patent US20250340662A1

Columns and labels:
[1] = target: CD44v6 on cultured cancer cells (BHT-101, ACT-1, A431) (human) (UniProt P16070); experiment: LigandTracer, 125I-IgG4 on BHT-101 cells
[2] = target: CD44v6 on cultured cancer cells (BHT-101, ACT-1, A431) (human) (UniProt P16070); experiment: live BHT-101 cells; apparent KD
[3] = target: Human CD44v6 iso4-Fc (human) (UniProt P16070); experiment: SPR SCK, antibody immobilised, CD44v6-Fc injected
[4] = target: Human CD44v6 iso4-Fc (human) (UniProt P16070); experiment: SPR SCK, antibody immobilised, CD44v6-Fc injected; apparent KD
Human v6-peptide (human) = target: T1, Human v6-peptide (human); experiment: SPR SCK, antibody immobilised, peptide injected
T1 sequence (peptide, N-terminal biotin): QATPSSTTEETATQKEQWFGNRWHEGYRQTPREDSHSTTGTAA

[5] = target: Cynomolgus v6-peptide (cynomolgus); experiment: SPR SCK, antibody immobilised, peptide injected
Sequence of Cynomolgus v6-peptide (cynomolgus) (peptide, as listed by the source): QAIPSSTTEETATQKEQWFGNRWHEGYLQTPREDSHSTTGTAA

Sequence of Human CD44v6 iso4-Fc (human) (P16070 other isoform, or with tags, fused parts or gaps limits assumed): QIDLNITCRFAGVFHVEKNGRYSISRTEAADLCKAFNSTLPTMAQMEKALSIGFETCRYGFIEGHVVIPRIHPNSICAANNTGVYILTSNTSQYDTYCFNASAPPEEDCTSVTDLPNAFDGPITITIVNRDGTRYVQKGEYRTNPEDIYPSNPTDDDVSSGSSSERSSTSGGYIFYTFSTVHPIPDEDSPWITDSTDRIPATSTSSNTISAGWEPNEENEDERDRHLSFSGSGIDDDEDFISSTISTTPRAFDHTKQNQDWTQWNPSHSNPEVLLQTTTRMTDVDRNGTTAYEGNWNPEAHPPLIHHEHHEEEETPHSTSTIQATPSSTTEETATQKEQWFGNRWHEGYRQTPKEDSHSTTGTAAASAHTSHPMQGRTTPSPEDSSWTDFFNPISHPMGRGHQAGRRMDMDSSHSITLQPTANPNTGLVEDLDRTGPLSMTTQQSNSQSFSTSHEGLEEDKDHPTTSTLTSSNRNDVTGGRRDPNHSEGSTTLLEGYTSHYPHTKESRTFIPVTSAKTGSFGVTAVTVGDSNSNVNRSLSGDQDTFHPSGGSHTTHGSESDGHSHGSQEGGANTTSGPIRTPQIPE

B1: AL-MN114-435 hIgG4 (antibody, V domains shown)
VH: EVQLLESGGGLVQPGGSLRLSCAASGFTFSSYAMSWVRQAPGKGLEWVSAISAGGSSTFYADSVKGRFTISRDNSKNTLYLQMNSLRAEDTAVYYCARHYYSDSDYRSSAAMDYWGQGTLVTVSS
VL: DIQMTQSPSSLSASVGDRVTITCRASQSISSYLNWYQQKPGKAPKLLIYAASSLQSGVPSRFSGSGSGTDFTLTISSLQPEDFATYYCQQDLYLLTFGQGTKLEIK
Kd [1]: 0.02 nM
Kd [2]: < 0.2 nM

B2: AL-MN114-93 hIgG4 (antibody, V domains shown)
VH: EVQLLESGGGLVQPGGSLRLSCAASGFSFGSFAMSWVRQAPGKGLEWVSAISAGGSSTYYADSVKGRFTISRDNSKNTLYLQMNSLRAEDTAVYYCARHYYSDSDYRSSAAMDYWGQGTLVTVSS
VL: DIQMTQSPSSLSASVGDRVTITCRASQSISSYLNWYQQKPGKAPKLLIYAASSLQSGVPSRFSGSGSGTDFTLTISSLQPEDFATYYCQQDLYLLTFGQGTKLEIK
Kd [2]: < 0.2 nM

B3: AL-MN114-132 hIgG4 (antibody, V domains shown)
VH: EVQLLESGGGLVQPGGSLRLSCAASGFTFSSYAMSWVRQAPGKGLEWVSAISGGGSSTYYADSVKGRFTISRDNSKNTLYLQMNSLRAEDTAVYYCARHYYSDSDYRSSAAMDYWGQGTLVTVSS
VL: DIQMTQSPSSLSASVGDRVTITCRASQSISSYLNWYQQKPGKAPKLLIYAASSLQSGVPSRFSGSGSGTDFTLTISSLQPEDFATYYCQQDLYLLTFGQGTKLEIK
Kd [2]: < 0.2 nM

B4: AL-MN114-145 hIgG4 (antibody, V domains shown)
VH: EVQLLESGGGLVQPGGSLRLSCAASGFSFSSFAMSWVRQAPGKGLEWVSAISAGGSSTFYADSVKGRFTISRDNSKNTLYLQMNSLRAEDTAVYYCARHYYSDSDYRSSAAMDYWGQGTLVTVSS
VL: DIQMTQSPSSLSASVGDRVTITCRASQSIGSYLNWYQQKPGKAPKLLIYSASNLQSGVPSRFSGSGSGTDFTLTISSLQPEDFATYYCQQDLYLLTFGQGTKLEIK
Kd [2]: < 0.2 nM

B5: AL-MN114-18 hIgG4 (antibody, V domains shown)
VH: EVQLLESGGGLVQPGGSLRLSCAASGFSFGSFAMSWVRQAPGKGLEWVSAISGGGSSTYYADSVKGRFTISRDNSKNTLYLQMNSLRAEDTAVYYCARHYYSDSDYRSSAAMDYWGQGTLVTVSS
VL: DIQMTQSPSSLSASVGDRVTITCRASQTIASYLNWYQQKPGKAPKLLIYTASNLQSGVPSRFSGSGSGTDFTLTISSLQPEDFATYYCQQDLYLLTFGQGTKLEIK
Kd [1]: 0.02 nM
Kd [2]: < 0.2 nM

B6: AL-MN114-439 hIgG4 (antibody, V domains shown)
VH: EVQLLESGGGLVQPGGSLRLSCAASGFSFGSFAMSWVRQAPGKGLEWVSAISAGGSSTFYADSVKGRFTISRDNSKNTLYLQMNSLRAEDTAVYYCARHYYSDSDYRSSAAMDYWGQGTLVTVSS
VL: DIQMTQSPSSLSASVGDRVTITCRASQSISSYLNWYQQKPGKAPKLLIYAASSLQSGVPSRFSGSGSGTDFTLTISSLQPEDFATYYCQQDLYLLTFGQGTKLEIK
Kd [2]: < 0.2 nM

B7: AL-MN114-19 hIgG4 (antibody, V domains shown)
VH: EVQLLESGGGLVQPGGSLRLSCAASGFSFGSYAMSWVRQAPGKGLEWVSAISGGGSSTFYADSVKGRFTISRDNSKNTLYLQMNSLRAEDTAVYYCARHYYSDSDYRSSAAMDYWGQGTLVTVSS
VL: DIQMTQSPSSLSASVGDRVTITCRASQSISSYLNWYQQKPGKAPKLLIYSASSLQSGVPSRFSGSGSGTDFTLTISSLQPEDFATYYCQQDLYLLTFGQGTKLEIK
Kd [1]: 0.04 nM
Kd [2]: < 0.2 nM

B8: AL-MN114-126 hIgG4 (antibody, V domains shown)
VH: EVQLLESGGGLVQPGGSLRLSCAASGFTFSSYAMSWVRQAPGKGLEWVSAISAGGSSTYYADSVKGRFTISRDNSKNTLYLQMNSLRAEDTAVYYCARHYYSDSDYRSSAAMDYWGQGTLVTVSS
VL: DIQMTQSPSSLSASVGDRVTITCRASQSISSYLNWYQQKPGKAPKLLIYAASSLQSGVPSRFSGSGSGTDFTLTISSLQPEDFATYYCQQDLYLLTFGQGTKLEIK
Kd [1]: 0.04 nM
Kd [2]: < 0.2 nM

B9: AL-MN114-460 hIgG4 (antibody, V domains shown)
VH: EVQLLESGGGLVQPGGSLRLSCAASGFSFGSYAMSWVRQAPGKGLEWVSAISAGGSSTYYADSVKGRFTISRDNSKNTLYLQMNSLRAEDTAVYYCARHYYSDSDYRSSAAMDYWGQGTLVTVSS
VL: DIQMTQSPSSLSASVGDRVTITCRASQSIGSYLNWYQQKPGKAPKLLIYSASSLQSGVPSRFSGSGSGTDFTLTISSLQPEDFATYYCQQDLYLLTFGQGTKLEIK
Kd [2]: < 0.2 nM

B10: AL-MN114-79 hIgG4 (antibody, V domains shown)
VH: EVQLLESGGGLVQPGGSLRLSCAASGFTFRSFAMSWVRQAPGKGLEWVSTISAGGSSTFYADSVKGRFTISRDNSKNTLYLQMNSLRAEDTAVYYCARHYYSDSDYRSSAAMDYWGQGTLVTVSS
VL: DIQMTQSPSSLSASVGDRVTITCRASQSIANYLNWYQQKPGKAPKLLIYAASTLQSGVPSRFSGSGSGTDFTLTISSLQPEDFATYYCQQDLYLLTFGQGTKLEIK
Kd [1]: 0.03 nM
Kd [2]: < 0.2 nM

B11: AL-MN114-444 hIgG4 (antibody, V domains shown)
VH: EVQLLESGGGLVQPGGSLRLSCAASGFTFRSFAMSWVRQAPGKGLEWVSAISGGGSSTFYADSVKGRFTISRDNSKNTLYLQMNSLRAEDTAVYYCARHYYSDSDYRSSAAMDYWGQGTLVTVSS
VL: DIQMTQSPSSLSASVGDRVTITCRASQSIGSYLNWYQQKPGKAPKLLIYSASSLQSGVPSRFSGSGSGTDFTLTISSLQPEDFATYYCQQDLYLLTFGQGTKLEIK
Kd [1]: 0.02 nM
Kd [2]: < 0.2 nM

B12: AL-MN114-14 hIgG4 (antibody, V domains shown)
VH: EVQLLESGGGLVQPGGSLRLSCAASGFTFSSYAMSWVRQAPGKGLEWVSAISGSGRSTFYADSVKGRFTISRDNSKNTLYLQMNSLRAEDTAVYYCARHYYSDSDYRSSAAMDYWGQGTLVTVSS
VL: DIQMTQSPSSLSASVGDRVTITCRASQSISSYLNWYQQKPGKAPKLLIYAASSLQSGVPSRFSGSGSGTDFTLTISSLQPEDFATYYCQQDLYLLTFGQGTKLEIK
Kd [2]: < 0.2 nM

B13: AL-MN114-71 hIgG4 (antibody, V domains shown)
VH: EVQLLESGGGLVQPGGSLRLSCAASGFSFRSFAMSWVRQAPGKGLEWVSAISGGGSSTFYADSVKGRFTISRDNSKNTLYLQMNSLRAEDTAVYYCARHYYSDSDYRSSAAMDYWGQGTLVTVSS
VL: DIQMTQSPSSLSASVGDRVTITCRASQSISSYLNWYQQKPGKAPKLLIYAASTLQSGVPSRFSGSGSGTDFTLTISSLQPEDFATYYCQQDLYLLTFGQGTKLEIK
Kd [1]: 0.02 nM
Kd [2]: < 0.2 nM

B14: AL-MN114-42 hIgG4 (antibody, V domains shown)
VH: EVQLLESGGGLVQPGGSLRLSCAASGFTFSSYAMSWVRQAPGKGLEWVSAISGGGYSTYYADSVKGRFTISRDNSKNTLYLQMNSLRAEDTAVYYCARHYYSDSDYRSSAAMDYWGQGTLVTVSS
VL: DIQMTQSPSSLSASVGDRVTITCRASQTIGSYLNWYQQKPGKAPKLLIYSASILQSGVPSRFSGSGSGTDFTLTISSLQPEDFATYYCQQDLYLLTFGQGTKLEIK
Kd [1]: 0.04 nM
Kd [2]: < 0.2 nM

B15: AL-MN114-429 hIgG4 (antibody, V domains shown)
VH: EVQLLESGGGLVQPGGSLRLSCAASGFSFSSFAMSWVRQAPGKGLEWVSAISAGGSSTYYADSVKGRFTISRDNSKNTLYLQMNSLRAEDTAVYYCARHYYSDSDYRSSAAMDYWGQGTLVTVSS
VL: DIQMTQSPSSLSASVGDRVTITCRASQSISSYLNWYQQKPGKAPKLLIYAASSLQSGVPSRFSGSGSGTDFTLTISSLQPEDFATYYCQQDLYLLTFGQGTKLEIK
Kd [1]: 0.06 nM
Kd [2]: < 0.2 nM

B16: AL-MN114-451 hIgG4 (antibody, V domains shown)
VH: EVQLLESGGGLVQPGGSLRLSCAASGFTFSSYAMSWVRQAPGKGLEWVSAISAGGYSTYYADSVKGRFTISRDNSKNTLYLQMNSLRAEDTAVYYCARHYYSDSDYRSSAAMDYWGQGTLVTVSS
VL: DIQMTQSPSSLSASVGDRVTITCRASQSIGSYLNWYQQKPGKAPKLLIYTASTLQSGVPSRFSGSGSGTDFTLTISSLQPEDFATYYCQQDLYLLTFGQGTKLEIK
Kd [1]: 0.03 nM
Kd [2]: < 0.2 nM

B17: AL-MN114-452 hIgG4 (antibody, V domains shown)
VH: EVQLLESGGGLVQPGGSLRLSCAASGFSFSSYAMSWVRQAPGKGLEWVSAISAGGSSTFYADSVKGRFTISRDNSKNTLYLQMNSLRAEDTAVYYCARHYYSDSDYRSSAAMDYWGQGTLVTVSS
VL: DIQMTQSPSSLSASVGDRVTITCRASQSIGSYLNWYQQKPGKAPKLLIYSASSLQSGVPSRFSGSGSGTDFTLTISSLQPEDFATYYCQQDLYLLTFGQGTKLEIK
Kd [2]: < 0.2 nM

B18: AL-MN114-23 hIgG4 (antibody, V domains shown)
VH: EVQLLESGGGLVQPGGSLRLSCAASGFSFRNFAMSWVRQAPGKGLEWVSAISGGGGSTFYADSVKGRFTISRDNSKNTLYLQMNSLRAEDTAVYYCARHYYSDSDYRSSAAMDYWGQGTLVTVSS
VL: DIQMTQSPSSLSASVGDRVTITCRASQNISSYLNWYQQKPGKAPKLLIYSASILQSGVPSRFSGSGSGTDFTLTISSLQPEDFATYYCQQDLYLLTFGQGTKLEIK
Kd [2]: < 0.2 nM

B19: AL-MN114-423 hIgG4 (antibody, V domains shown)
VH: EVQLLESGGGLVQPGGSLRLSCAASGFTFSSYAMSWVRQAPGKGLEWVSAISAGGTSTYYADSVKGRFTISRDNSKNTLYLQMNSLRAEDTAVYYCARHYYSDSDYRSSAAMDYWGQGTLVTVSS
VL: DIQMTQSPSSLSASVGDRVTITCRASQSISSYLNWYQQKPGKAPKLLIYAASSLQSGVPSRFSGSGSGTDFTLTISSLQPEDFATYYCQQDLYLLTFGQGTKLEIK
Kd [1]: 0.1 nM
Kd [2]: < 0.2 nM

B20: BIWA4 IgG1 LALA (antibody, from another filing, V domains shown)
VH: EVQLVESGGGLVKPGGSLRLSCAASGFTFSSYDMSWVRQAPGKGLEWVSTISSGGSYTYYLDSIKGRFTISRDNAKNSLYLQMNSLRAEDTAVYYCARQGLDYWGRGTLVTVSS
VL: EIVLTQSPATLSLSPGERATLSCSASSSINYIYWYQQKPGQAPRLLIYLTSNLASGVPARFSGSGSGTDFTLTISSLEPEDFAVYYCLQWSSNPLTFGGGTKVEIKR
koff [3]: 0.00027 s⁻¹
kon [3]: 370000 M⁻¹ s⁻¹
Kd [4]: 0.72 nM
Kd (Human v6-peptide (human)): 15 nM
koff (Human v6-peptide (human)): 0.0035 s⁻¹
kon (Human v6-peptide (human)): 240000 M⁻¹ s⁻¹
Kd [5]: 12 nM
koff [5]: 0.0035 s⁻¹
kon [5]: 280000 M⁻¹ s⁻¹
